One molecule from patent publication US20220090089A1 (BROAD INSTITUTE, published 2022) can be followed below.

The assay addresses T1, CD4 on primary human peripheral blood mononuclear cells (PBMCs) (human, UniProt P01730 26-458).
T1 construct: whole, on cells
Put plainly: flow cytometry of phage-stained human PBMCs.

Experimental: Harvested cell lines or thawed PBMCs (see PHAGE-ATAC workflow for harvest and thawing protocol) were resuspended in FC buffer (see above) and incubated with respective phage nanobodies for 20 min on a rotator at 4° C. Cells were centrifuged and washed with cold FC buffer twice to remove unbound phages (centrifugation steps all were 350 g, 4 min, 4° C.). […] Cells were incubated for 10 min on ice, washed twice in FC buffer and resuspended in Sytox Blue (Thermo Scientific) containing FC buffer for live/dead discrimination according to manufacturer's instructions. […] Stained cells were analyzed using a CytoFLEX LX Flow Cytometer (Beckman Coulter) at the Broad Institute Flow Cytometry Facility. Flow cytometry data were analyzed using FlowJo software v.10.6.1.

B1: PAC-tagged anti-CD4 nanobody-displaying M13 phage (phagemid pDXinit-CD4Nb-PAC) (VHH)
VHH: EVQLVESGGGSVQPGGSLTLSCGTSGRTFNVMGWFRQAPGKEREFVAAVRWSSTGIYYTQYADSVKSRFTISRDNAKNTVYLEMNSLKPEDTAVYYCAADTYNSNPARWDGYDFWGQGTQVTVSS
notes: also called anti-CD4 pNb; anti-CD4 phage nanobody; not shown: M13 phage coat protein p3, from phagemid pDXinit; 12-amino acid PAC-tag
For B1, the binding result is on record as “binds”.
